Data: patent US20190086411A1 (ROCHE SEQUENCING SOLUTIONS, published 2019)

Biological target: T1, human prostate specific antigen (PSA) labelled with biotin (human, UniProt P07288 25-261, labelled with biotin using EZ-Link NHS-PEG4-biotinylation kit)
T1 construct: Applied in solution at 100 ng/ml to the peptide arrays and detected with Streptavidin Cy5
Assay: Extension Array (160,000 members, 5 replicates), biotin-PSA, Streptavidin Cy5 detection
Method: (§1) Binding Assay: PSA labelled with biotin using EZ-Link NHS-PEG4-biotinylation kit (Thermo Fisher Sci., Inc. Rockford, Ill.) was incubated in SecureSeal hybridization chamber (Grace Bio-Labs, Bend, Oreg.) at concentration 100 ng/ml in 1×TE binding buffer with 1% alkali soluble casein at 25° C. for 12 hrs. Array was washed 3× with 1×TE buffer and stained with Streptavidin Cy5 in 1× binding buffer with 1% alkali soluble casein at 25 C for 1 hr, and washed 3× with 1×TE buffer and finally with 0.1×TE buffer and scanned using a 2 micrometer MS200 scanner (Roche/Nimblegen, Madison, Wis.).
Two dominant F[QET]VY[LI] and W[QET]V[YH][LAV] clusters described above were related by having similar amino acids F or W at position 1 and V at position 3. To find other possible binder motifs we excluded sequences with these features from the 5-mer Array data and performed PEPLIB analysis with top 32 sequences from the remaining dataset as shown in FIG. 11. […] Four sequences, FEVYL (SEQ ID NO: 1), WTVYA (SEQ ID NO: 2), WEVHL (SEQ ID NO: 3), and RSILY (SEQ ID NO: 4), selected from the 5-mer Array were extended by all possible dimers at both N- and C-terminus using all 20 natural amino acids (×) to design Extension Arrays each of them consisting of 160,000 members synthesized in 5 replicates (Table 2). Top twelve sequences for each library selected by signal intensity of PSA binding were used to generate Logo plots shown in FIG. 12. […] For example, FEVYL motif (SEQ ID NO: 1) prefers exclusively P at the C-terminus, WTVYA motif (SEQ ID NO: 2) prefers acidic amino acid either D or E at the N-terminus and G at the C-terminus, whereas RSILY motif (SEQ ID NO: 4) prefers C at the C-terminus, an amino acid that was not present in the 5-mer arrays.

T1 sequence (P07288 25-261 limits assumed): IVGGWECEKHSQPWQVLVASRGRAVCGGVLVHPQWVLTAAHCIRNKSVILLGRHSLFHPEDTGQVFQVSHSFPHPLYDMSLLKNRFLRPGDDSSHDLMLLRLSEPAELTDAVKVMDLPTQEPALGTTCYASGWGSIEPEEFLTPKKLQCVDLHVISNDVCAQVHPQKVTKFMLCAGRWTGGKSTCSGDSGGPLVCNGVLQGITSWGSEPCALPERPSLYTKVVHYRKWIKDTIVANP

| Molecule | binding result |
| --- | --- |
| NGFEVYLPG | binds |
| SCRSILYGQ | binds |
| SEWTVYAGN | binds |
| TGWEVHLGK | binds |

Biological target: human prostate specific antigen (PSA) labelled with biotin (human) (UniProt P07288)
Sequence (P07288 25-261 limits assumed): as above
Assay: 5-mer peptide microarray, biotin-PSA 100 ng/ml, Streptavidin Cy5 detection

| Molecule | rank by binding signal to PSA (among 405 top sequences) [rank] | rank in the list of 405 sequences with the highest average signal intensity [rank] |
| --- | --- | --- |
| FEVYL (peptide) | 1 |  |
| WTVYA (peptide) | 3 |  |
| RSILY (peptide) |  | 307 |
| WEVHL (peptide) | 28 |  |

Biological target: T1, human prostate specific antigen (PSA) …
Assay: Double Substitution/Deletion Array, biotin-PSA, Streptavidin Cy5 detection
Method: as §1
The top sequences selected from the Extension Array (Table 2, column 3) were used to design Double Substitution/Deletion Arrays as shown in column 4 of Table 2. Single and double substitution scan performed as described in Example 3 were used to optimize PSA binders to achieve highest signal intensity and confirm specificity of each amino acid in motif sequence (Table 2, column 5).

| Molecule | binding result |
| --- | --- |
| GTGFEVYIPGA | binds |
| QSCRSILYGDG | binds |
| ASEWTVYAGNK | binds |
| GTGWEVHLGKG | binds |
